Results on five molecules are retold here after patent US20140086913A1 (Gilead, published 2014).

First the molecules themselves.
T1: human DDR2 stably expressed on HEK293 cells (human, UniProt Q16832 22-855)
T1 construct: whole, on cells; also called hDDR2
T1 sequence (looked up): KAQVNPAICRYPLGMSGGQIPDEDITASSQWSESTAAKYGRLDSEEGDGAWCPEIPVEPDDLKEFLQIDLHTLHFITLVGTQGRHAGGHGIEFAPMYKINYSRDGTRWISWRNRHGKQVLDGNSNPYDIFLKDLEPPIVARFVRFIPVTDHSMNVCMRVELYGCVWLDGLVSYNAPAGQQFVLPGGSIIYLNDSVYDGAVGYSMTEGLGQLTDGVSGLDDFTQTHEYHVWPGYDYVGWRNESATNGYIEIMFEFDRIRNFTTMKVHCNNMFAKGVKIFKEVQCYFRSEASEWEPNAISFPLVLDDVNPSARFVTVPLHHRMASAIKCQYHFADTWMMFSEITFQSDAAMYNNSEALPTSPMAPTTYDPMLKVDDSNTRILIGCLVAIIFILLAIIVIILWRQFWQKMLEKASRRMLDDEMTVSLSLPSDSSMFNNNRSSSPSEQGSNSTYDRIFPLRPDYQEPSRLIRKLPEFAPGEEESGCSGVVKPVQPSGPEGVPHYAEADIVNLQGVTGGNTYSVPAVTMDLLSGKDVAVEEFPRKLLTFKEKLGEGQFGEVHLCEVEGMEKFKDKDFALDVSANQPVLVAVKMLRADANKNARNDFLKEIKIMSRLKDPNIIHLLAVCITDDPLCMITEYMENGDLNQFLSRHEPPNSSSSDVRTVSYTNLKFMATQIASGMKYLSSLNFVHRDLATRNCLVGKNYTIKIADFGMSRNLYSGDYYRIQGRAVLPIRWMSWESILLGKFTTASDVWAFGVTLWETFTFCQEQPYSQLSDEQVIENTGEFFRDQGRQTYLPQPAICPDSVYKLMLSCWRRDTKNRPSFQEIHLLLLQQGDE

T2: mouse ECD-DDR1-Fc (mouse; human, UniProt Q03146 22-414)
T2 construct: also called mouse DDR1-ECD; wild-type mouse DDR1-ECD; not shown: human IgG1 Fc of the vector pFuse-hIgG1-Fc1 (Invivogen)
T2 sequence: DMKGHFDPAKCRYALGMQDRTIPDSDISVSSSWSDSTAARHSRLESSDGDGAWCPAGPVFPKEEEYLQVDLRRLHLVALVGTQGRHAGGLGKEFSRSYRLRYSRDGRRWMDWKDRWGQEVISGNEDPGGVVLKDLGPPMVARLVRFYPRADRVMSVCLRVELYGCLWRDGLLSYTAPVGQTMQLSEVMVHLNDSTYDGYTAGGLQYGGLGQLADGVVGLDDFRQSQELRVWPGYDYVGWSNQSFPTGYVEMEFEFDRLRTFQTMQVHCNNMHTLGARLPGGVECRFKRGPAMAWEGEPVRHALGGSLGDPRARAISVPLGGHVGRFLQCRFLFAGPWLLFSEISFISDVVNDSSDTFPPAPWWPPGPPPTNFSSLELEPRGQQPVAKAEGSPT

B1: AB2074 (antibody, V domains shown)
VH: EIQLQQSGPELVNPGASVKVSCKASGYSFTDYNMYWVKQSHGKSLEWIGYIDPYNGGTSYNQKFKGKATLTVDKSSSTAFMHLNSLTSEDSAVYYCAREYYGSRLWYFDVWGAGTAVTVSS
VL: DIVMTQSPSSLAMSVGQKVTMSCKSSQSLLNRNNQKNYLAWYQQKPGQSPKLLVYFASTRESGVPDRFIGSGSGTDFTLTLSSVRAEDLAENFCQQHYSTPFTFGSGTRLEIKR
notes: mouse hybridoma mAb
B2: AB2009 (antibody, V domains shown)
VH: EVQLVESGGGLVQPGGSLKFSCAASGFTFSSYGMSWVRQTPDKRLELVAIINSHGFSTYYPDSVKGRFTISRDNAKNTLYLQMSSLKSEDTAIYYCARGGYGNYGMDYWGQGTSVTVSS
VL: DIVLTQSPASLAVSLGQRATISCRASESVDSYGNSFMHWYQQKVGQPPKLLIFRASNIESGIPARFSGSGSRTDFTLTINSVEADDVATYYCQQSNEAPYTFGGGTKLEIKR
notes: mouse hybridoma mAb
B3: AB2026 (antibody, V domains shown)
VH: B2 VH
VL: B2 VL
notes: mouse hybridoma mAb
B4: AB2031 (antibody, V domains shown)
VH: B2 VH
VL: B2 VL
notes: mouse hybridoma mAb
B5: AB2061 (antibody, V domains shown)
VH: B1 VH
VL: B1 VL
notes: mouse hybridoma mAb

One assay deals with T3, DDR1ECD-Fc (R&D Systems, Catalog #2396-DR) (human, UniProt Q08345 21-416).
T3 construct: range 21-416; construct as described for the bought immunogen; also called human ECD-DDR1-Fc; Fc-ECD-DR1; not shown: human IgG1, Pro100-Lys330
In words: ELISA. (In an ELISA, binding on a coated surface is turned into a signal by an enzyme label.)
B1 came in with a Kd of 0.259 nM.

In turn, B2 had a Kd of 0.257 nM.

Consider B3, for which the Kd was 0.298 nM.

As to B4, the Kd was determined as 0.257 nM.

The next assay has as its target DDR1 endogenously expressed on human cancer cell lines (T47D, HCT-116, A431) (human) (UniProt Q08345). The assay is described as follows: cell-based or functional assay.
Consider B5, for which the EC50, DDR1 phospho-specific ELISA (T47D) came to 0.66 nM; the EC50, cluster formation assay (A431 cells) was found to be 0.88 nM; the Maximal inhibition, DDR1 phospho-specific ELISA (T47D) is 100%; the NPI of cluster formation at 66 nM (A431 cells) is 126%.

Molecule B1 showed an EC50, DDR1 phospho-specific ELISA (T47D) of 0.47 nM; a Maximal inhibition, DDR1 phospho-specific ELISA (T47D) of 100%; an NPI of cluster formation at 66 nM (A431 cells) of 112%.

As for B2, the EC50, DDR1 phospho-specific ELISA (T47D) was 0.47 nM; the EC50, cluster formation assay (A431 cells) worked out at 0.43 nM; the Maximal inhibition, DDR1 phospho-specific ELISA (T47D) was 100%; the NPI of cluster formation at 66 nM (A431 cells) was found to be 127%.

With B3, the EC50, DDR1 phospho-specific ELISA (T47D) turned out to be 0.39 nM; the Maximal inhibition, DDR1 phospho-specific ELISA (T47D) amounted to 100%; the NPI of cluster formation at 66 nM (A431 cells) was 115%.

For B4, the EC50, DDR1 phospho-specific ELISA (T47D) worked out at 0.4 nM; the EC50, cluster formation assay (A431 cells) amounted to 0.63 nM; the Maximal inhibition, DDR1 phospho-specific ELISA (T47D) came out at 100%; the NPI of cluster formation at 66 nM (A431 cells) amounted to 113%.

The next assay has as its target DDR1 with a ProLink Tag (PK) in engineered U20S cells (DiscoveRx) (UniProt Q08345). In words: cell-based or functional assay.
Molecule B5 registered a Mean EC50, DDR1 Tyr513 phosphorylation assay (U20S) of 2.5 nM.

Regarding B1, the Mean EC50, DDR1 Tyr513 phosphorylation assay (U20S) turned out to be 1.5 nM.

The next assay deals with DDR1 endogenously expressed on human cancer cell lines (T47D, HCT-116, A431) (human) (UniProt Q08345). The assay is described as follows: flow cytometry, T47D cells. Background: Flow cytometry measures light scatter and fluorescence of single cells or particles in a stream.
B5: the MFI worked out at 4620 MFI.

The molecule B1 returned an MFI of 4420 MFI.

In the case of B2, the MFI turned out to be 5930 MFI.

Consider B3, for which the MFI is 4670 MFI.

Regarding B4, the MFI was 4600 MFI.

For a further assay the target is unchanged. In words: flow cytometry, HCT116 cells.
In turn, B5 yielded an MFI of 1200 MFI.

The molecule B1 registered an MFI of 1470 MFI.

Molecule B2 gave an MFI of 1480 MFI.

In turn, B3 gave an MFI of 1540 MFI.

B4 registered an MFI of 1460 MFI.

The target in another assay is human DDR1 (isoform B) stably expressed on HEK293 cells (human) (UniProt Q08345). The assay is described as follows: flow cytometry, HEK293/hDDR1.
human DDR1 (isoform B) stably expressed on HEK293 cells (human), sequence (Q08345 19-913): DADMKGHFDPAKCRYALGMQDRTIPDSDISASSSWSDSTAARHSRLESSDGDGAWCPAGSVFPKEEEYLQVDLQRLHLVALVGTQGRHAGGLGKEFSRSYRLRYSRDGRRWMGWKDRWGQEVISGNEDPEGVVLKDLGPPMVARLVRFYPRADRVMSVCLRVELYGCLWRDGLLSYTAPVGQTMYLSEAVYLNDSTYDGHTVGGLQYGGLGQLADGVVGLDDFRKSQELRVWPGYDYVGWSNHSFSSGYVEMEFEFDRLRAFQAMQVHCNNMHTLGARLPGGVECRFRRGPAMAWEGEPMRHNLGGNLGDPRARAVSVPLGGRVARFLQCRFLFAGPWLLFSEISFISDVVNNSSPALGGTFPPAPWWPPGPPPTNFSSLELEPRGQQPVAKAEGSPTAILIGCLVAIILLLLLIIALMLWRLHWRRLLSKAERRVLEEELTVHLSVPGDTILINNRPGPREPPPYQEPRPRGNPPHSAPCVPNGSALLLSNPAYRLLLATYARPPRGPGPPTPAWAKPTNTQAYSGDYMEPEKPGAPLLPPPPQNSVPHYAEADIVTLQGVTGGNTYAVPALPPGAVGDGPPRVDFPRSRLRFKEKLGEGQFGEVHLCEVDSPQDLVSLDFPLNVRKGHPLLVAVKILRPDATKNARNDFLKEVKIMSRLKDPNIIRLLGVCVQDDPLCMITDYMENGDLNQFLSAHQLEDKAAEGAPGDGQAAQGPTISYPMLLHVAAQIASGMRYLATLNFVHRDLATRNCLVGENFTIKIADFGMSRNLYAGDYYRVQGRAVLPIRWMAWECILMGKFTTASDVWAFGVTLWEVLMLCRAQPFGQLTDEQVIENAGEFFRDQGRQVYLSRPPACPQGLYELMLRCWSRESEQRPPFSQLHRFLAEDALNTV
In the case of B5, the MFI amounted to 7500 MFI.

In turn, B1 returned an MFI of 7810 MFI.

As to B2, the MFI is 11900 MFI.

Regarding B3, the MFI stood at 6350 MFI.

In the case of B4, the MFI came to 8540 MFI.

A further assay concerns the target DDR1 with a ProLink Tag (PK) in engineered U20S cells (DiscoveRx), Q08345. In words: cell-based or functional assay.
Molecule B2 gave a Mean EC50, DDR1 Tyr513 phosphorylation assay (U20S) of 1.5 nM.

The molecule B3 yielded a Mean EC50, DDR1 Tyr513 phosphorylation assay (U20S) of 1.7 nM.

Molecule B4 registered a Mean EC50, DDR1 Tyr513 phosphorylation assay (U20S) of 0.99 nM.

The target of the next assay is T1, human DDR2 stably expressed on HEK293 …. The assay is described as follows: flow cytometry, HEK293/hDDR2. The protocol: Additional monoclonal antibodies were obtained from individual hybridomas in Example 1 and were characterized for their properties.
Cells were cultured in DMEM with 10% FBS and 0.8 mg/mL hygromycin. When cells reached 60-80% confluence, they were centrifuged at 1,200 rpm for 5 minutes, suspended in FACS buffer (1×PBS, 1% BSA), and aliquoted into a 96-well plate at 1×10⁶ cells per well. The anti-DDR1 monoclonal antibodies or appropriate isotype controls at 2 μg per 1×10⁶ cells were added and incubated at 4° C. for 1 hr. The cells were washed twice with FACS buffer then stained with the anti-IgG-PE secondary antibody at 10 μL per well at 4° C. for 1 hr. The cells were washed again and measured for the MFI values or signals using flow cytometry (LSR Fortessa instrument, BD Biosciences). Background MFI signals from vector-only cells (i.e. no DDR1 or DDR2 expression) was subtracted from those of the cells treated with antibodies. Higher MFI values or signals indicated increased binding or specificity of the anti-DDR1 antibodies to the DDR1 on the cell surface.
On to B5, for which the MFI is 384 MFI.

As to B1, the MFI came to 382 MFI.

The molecule B2 came in with an MFI of 277 MFI.

As to B3, the MFI came out at 203 MFI.

B4 came in with an MFI of 195 MFI.

The next assay has as its target T3, DDR1ECD-Fc (R&D Systems, Catalog …). In words: ELISA, coated antigen, apparent KD. The protocol:
(§1) In this study, ELISA was used to determine the affinity of murine anti-DDR1 monoclonal antibodies to the extracellular domain (ECD) of either human or murine DDR1. A 96-well MaxiSorb ELISA plates (Nunc) were coated with 2 μg/mL of one of three purified recombinant tagged proteins: human ECD-DDR1-His protein, human ECD-DDR1-Fc, or mouse ECD-DDR1-Fc overnight at 4° C. The next day, the plates were blocked with 5% bovine serum albumin (BSA, Jackson Immunoresearch) prior to the addition of serially diluted anti-DDR1 monoclonal antibodies. Antibodies were incubated for 1 hr at room temperature. The binding of antibody to the antigen was detected by incubating samples with anti-mouse IgG-HRP (horse radish peroxidase) secondary detection antibody (Jackson Immunoresearch) for 1 hr. After a washing step, 3,3′,5,5″-tetramethylbenzidine (TMB) reagent was added for HRP to produce a colorimetric signal. The reaction was stopped by addition of 1M hydrochloric acid after 2 minutes and measured for absorbance (optical density, OD) at 450λ on a Molecular Devices plate reader. The OD values were plotted against antibody concentration and fitted using a using 4-parameter logistic equation in SoftMax software (Molecular Devices). The apparent affinity constant (KD) was taken from the C-parameter of the equation (y=(A−D)/(1+(x/C)̂B)+D). The apparent affinity constants were summarized (in some cases shown as average values) in Table 10 below. Lower value indicates higher binding affinity of the antibody to the antigen.
As to B5, the Kd turned out to be 0.418 nM.

For B1, the Kd amounted to 0.259 nM.

As for B2, the Kd was 0.257 nM.

As to B3, the Kd was found to be 0.298 nM.

In the case of B4, the Kd is 0.257 nM.

The target in another assay is T4, human ECD-DDR1-His protein (human, UniProt Q08345 21-416).
T4 construct: also called huDDR1-ECD-His; DDR1ECD-6Xhis; not shown: His tag
The assay is described as follows: ELISA, coated antigen, apparent KD. The protocol:
as §1
For B5, the Kd was found to be 0.391 nM.

Turning to B1, the Kd came out at 0.47 nM.

In the case of B2, the Kd came to 0.197 nM.

Regarding B3, the Kd came to 0.161 nM.

Take B4: the Kd came to 0.148 nM.

The next assay has as its target T2, mouse ECD-DDR1-Fc. The assay is described as follows: ELISA, coated antigen, apparent KD. The protocol: as §1
Consider B5, for which the Kd was found to be 28 nM.

Turning to B1, the Kd came out at 28.5 nM.

For the molecule B2, the Kd stood at 6.93 nM.

On to B3, for which the Kd is 17.9 nM.

Take B4: the Kd is 17.3 nM.

Another assay deals with human DDR1 (isoform B) stably expressed on HEK293 cells (human) (UniProt Q08345). In words: flow cytometry, HEK293/human DDR1, normalized to empty-vector cells.
B1 came in with an MFI of 7810 MFI.

Regarding B2, the MFI was determined as 11900 MFI.

For the molecule B3, the MFI turned out to be 6350 MFI.

B4 gave an MFI of 8540 MFI.
